We go through 83 variants from the RNAGym collection of RNA variant scans (doi:10.1093/molbev/msab373).

B1: Azoarcus group I ribozyme (parent)
chain: GUGCCUUGCGCCGGGAAACCACGCAAGGGAUGGUGUCAAAUUCGGCGAAACCUAAGCGCCCGCCCGGGCGUAUGGCAACGCCGAGCCAAGCUUCGGCGCCUGCGCCGAUGAAGGUGUAGAGACUAGACGGCACCCACCUAAGGCAAACGCUAUGGUGAAGGCAUAGUCCAGGGAGUGGCGAAAGUCACACAAACCGG

This data set covers variants of B1. In words: reverse-splicing fitness (ratio to wild type); higher = more active; in vitro selection; Mg2+ level not given. The gist of the method:
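An in vitro group I ribozyme library with randomized positions was T7-transcribed and gel-purified. In triplicate, 10 pmol RNA in EPPS pH 7.5 was reacted with 50 pmoles of a 30-nt RNA substrate for 1 h at 37 °C across several added MgCl2 levels (1–48 mM), then stopped with EDTA. Products were reverse transcribed from a substrate-complementary primer, PCR-amplified and sequenced (HiSeq 4000). Fitness is a variant's read proportion after selection over that before, normalised to wild type.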
Turning to A120G A145G U176G, the reverse-splicing fitness was found to be 0.0157.

On to A120G A145G U176C, for which the reverse-splicing fitness is 0.246. As for A120G A145G U176A, the figure is 0.193. Then A120G A145G C150G C169U, with 0.094; and A120G A145G C150G C169A, with 0.0607. Then A120G A145G C150G C169G, with 0.106; and A120G C169G U176C, with 0.261. As to A120G C169G U176G, the reverse-splicing fitness stood at 0.0117. As for A120G C169G U176A, the figure is 0.209; as for A120G A145U C169U U176C, 0.194.

For the variant A120G A145U C169U U176G, the reverse-splicing fitness is 0.0221. A120G A145U C169U U176A: the reverse-splicing fitness was 0.174. As for A120G A145U C150A C169U, the reverse-splicing fitness stood at 0.0677. As for A120G A145U C150A C169A, the reverse-splicing fitness was found to be 0.0459. Then A120G A145U C150A C169G, with 0.0841; and A120G A145C C150U U176C, with 0.0938; and A120G A145C C150U U176A, with 0.0853. Then A120G A145C C150U U176G, with 0.0108; and A120G A145C C150U C169U U176C, with 0.0977. For the variant A120G A145C C150U C169U U176A, the reverse-splicing fitness was found to be 0.0904. As for A120G A145C C150U C169U U176G, the figure is 0.00915; as for A120G C150A C169U, 0.071.

In the case of A120G C150A C169A, the reverse-splicing fitness stood at 0.0602. Then A120G C150A C169G, with 0.0903; and A120G A145G C169G U176C, with 0.268. For A120G A145G C169G U176A, the reverse-splicing fitness came to 0.221.

Turning to A120G A145G C169G U176G, the reverse-splicing fitness was found to be 0.0103. Then A120G A145G C150A C169A U176A, with 0.0345; and A120G A145G C150A C169A U176C, with 0.0558; and A120G A145G C150A C169A U176G, with 0.00587. Then A120U A145C C150A C169G, with 0.0132; and A120U A145C C150A C169U, with 0.0192; and A120U A145C C150A C169A, with 0.0021. Then A120G A145U C150G C169A U176G, with 0.00439; and A120G A145U C150G C169A U176C, with 0.0317; and A120G A145U C150G C169A U176A, with 0.0196. Take A120G A145C C150U C169A: the reverse-splicing fitness was 0.123. A120G A145C C150U C169U: the reverse-splicing fitness was 0.153. Take A120G A145C C150U C169G: the reverse-splicing fitness is 0.213. As for A120U A145C C150G U176C, the figure is 0.121; as for A120U A145C C150G U176G, 0.0278; as for A120U A145C C150G U176A, 0.132. Regarding A120G A145U U176C, the reverse-splicing fitness is 0.269.

As for A120G A145U U176A, the reverse-splicing fitness turned out to be 0.197. In the case of A120G A145U U176G, the reverse-splicing fitness came out at 0.0162.

As to A120G A145U C150A U176A, the reverse-splicing fitness amounted to 0.0378. On to A120G A145U C150A U176G, for which the reverse-splicing fitness came out at 0.00673. Then A120G A145U C150A U176C, with 0.0519. Take A120U A145C C150G C169G U176A: the reverse-splicing fitness worked out at 0.00551. As for A120U A145C C150G C169G U176G, the figure is 0.00252; as for A120U A145C C150G C169G U176C, 0.00281. As for A120G A145C C169A U176C, the figure is 0.157; as for A120G A145C C169A U176A, 0.0967; as for A120G A145C C169A U176G, 0.0075. Then A120U A145C C150U C169A U176G, with 0.00156. On to A120U A145C C150U C169A U176C, for which the reverse-splicing fitness turned out to be 0.00274. Then A120U A145C C150U C169A U176A, with 0.00179. Then A120U A145C C150A C169U U176C, with 0.00371; and A120U A145C C150A C169U U176G, with 0.00358. On to A120U A145C C150A C169U U176A, for which the reverse-splicing fitness was found to be 0.00859. Regarding A120G A145C C150U, the reverse-splicing fitness is 0.166. Then A120G A145C C150G, with 0.0854; and A120G C150G C169G, with 0.0731; and A120G C150G C169U, with 0.0614. Then A120G C150G C169A, with 0.0439. Take A120U A145G: the reverse-splicing fitness came out at 0.837. Then A120U A145C, with 0.787. As for A120G A145G C150U C169A U176A, the figure is 0.0867; as for A120G A145G C150U C169A U176C, 0.157. Then A120G A145G C150U C169A U176G, with 0.0072; and A120G A145C C169G, with 0.614; and A120G A145C C169U, with 0.435. Consider A120G A145C C169A, for which the reverse-splicing fitness was determined as 0.41.

On to A120U A145C C150G C169U U176G, for which the reverse-splicing fitness is 0.00273.

Take A120U A145C C150G C169U U176C: the reverse-splicing fitness stood at 0.00753.

For the variant A120U A145C C150G C169U U176A, the reverse-splicing fitness came out at 0.00626.

With A120G C150U C169G U176G, the reverse-splicing fitness stood at 0.00753. As for A120G C150U C169G U176C, the figure is 0.195; as for A120G C150U C169G U176A, 0.157; as for A120G A145U C150U C169U U176G, 0.0135. For A120G A145U C150U C169U U176C, the reverse-splicing fitness stood at 0.162.

For the variant A120G A145U C150U C169U U176A, the reverse-splicing fitness turned out to be 0.14. In the case of A120G A145G C169A, the reverse-splicing fitness was determined as 0.424.
